Laboratory results: publication PMC10179162

How the values were obtained:
[1] = biological target: chimeric HPV16 L1:P18I10 capsid protein (293F-derived, chromatography-purified L1:P18I10 VLP) (human papillomavirus type 16 | HIV-1) (UniProt P03101); experiment: non-reducing SDS-PAGE (disulfide cross-linking); purified VLPs mixed with 2x Laemmli sample buffer with or without 20 mM DTT, 15 min at room temperature; 8-16% gel; blot probed with anti-HPV16 L1 mAb CAMVIR-1
[2] = biological target: chimeric HPV16 L1:P18I10 capsid protein (BEVS/IC-derived, ultracentrifugation-purified L1:P18I10 VLP) (human papillomavirus type 16 | HIV-1) (UniProt P03101); experiment: as above

Row | Substance | percent disulfide-bonded into oligomers (without DTT) [1] [%] | percent monomeric (with DTT) [1] [%] | percent disulfide-bonded into oligomers (without DTT) [2] [%] | percent monomeric (with DTT) [2] [%]
1 | chimeric HPV16 L1:P18I10 capsid protein (293F-derived, chromatography-purified L1:P18I10 VLP) (from UniProt P03101 1-129; P03101 137-505) | > 99 | 80 | – | –
2 | chimeric HPV16 L1:P18I10 capsid protein (BEVS/IC-derived, ultracentrifugation-purified L1:P18I10 VLP) (from UniProt P03101 1-129; P03101 137-505) | – | – | > 99 | 50
